How the values were obtained:
Details in all cases: both partners purified
[1] = target: T1, Proliferating Cell Nuclear Antigen (UniProt P12004 1-261); assay: SPR; SPRTN PIP-UBZ amine-coupled to a CM5 chip (~1000 RU); analytes monoUb, PCNA, monoUb-PCNA; 50 mM HEPES pH 7.4, 50 mM NaCl, 0.5 mM TCEP-HCl; steady-state affinity model
T1 construct: PCNA; plasmid pET16b-PCNA (Addgene #134898); also called PCNA; source: E. coli BL21(DE3), purified (Q Sepharose, heparin, SEC)

M1-linked tetraUb = target: T2, M1-linked tetraUb (UniProt P0CG48 1-304); assay: ITC; ubiquitin species titrated into the SPRTN fragment (arrows in Supplementary Figures 4A, 4D, 6A); 25°C; 50 mM HEPES pH 7.4, 50 mM NaCl, 0.5 mM TCEP-HCl; one-site binding model; at least 3 repeats, undetectable pairs 1 repeat
T2 construct: four ubiquitin units head to tail on one chain (M1-linked, linear); plasmid pET-24-tetraUb; also called M1-Ub4; source: E. coli BL21(DE3), purified (HisTrap, SEC)

M1-linked hexaUb = target: T3, M1-linked hexaUb (UniProt P0CG48 1-456); assay: as above
T3 construct: six ubiquitin units head to tail on one chain (M1-linked, linear); plasmid pET-24-hexaUb; also called M1-Ub6; source: E. coli BL21(DE3), purified (HisTrap, SEC)

M1-linked diUb = target: T4, M1-linked diUb (UniProt P0CG48 1-152); assay: as above
T4 construct: two ubiquitin units head to tail on one chain (M1-linked, linear); plasmid pET-47b-N-His-Ub2; The His tag was removed by HRV 3C only for the 15N-labelled M1-Ub2 of the NMR work, as far as the methods tell; also called M1-Ub2; M1-Ub2 WT; source: E. coli BL21(DE3), purified (HisTrap, SEC)

[2] = target: T5, M1-linked hexaUb (His-tagged M1-Ub6) (UniProt P0CG48 1-76; P0CG48 1-76; P0CG48 1-76; P0CG48 1-76; P0CG48 1-76; P0CG48 1-76); assay: ITC; MicroCal PEAQ-ITC, 25°C, 50 mM HEPES pH 7.4, 50 mM NaCl, 0.5 mM TCEP–HCl; one-site binding model; who was in the syringe is not told
T5 construct: ubiquitin unit 1 of 6, joined head to tail (M1-linked); ubiquitin unit 2 of 6; ubiquitin unit 3 of 6; ubiquitin unit 4 of 6; ubiquitin unit 5 of 6; ubiquitin unit 6 of 6; source: E. coli BL21(DE3), purified (HisTrap, SEC)

[3] = target: T6, M1-linked tetraUb (His-tagged M1-Ub4) (UniProt P0CG48 1-76; P0CG48 1-76; P0CG48 1-76; P0CG48 1-76); assay: as above
T6 construct: ubiquitin unit 1 of 4, joined head to tail (M1-linked); ubiquitin unit 2 of 4; ubiquitin unit 3 of 4; ubiquitin unit 4 of 4; source: E. coli BL21(DE3), purified (HisTrap, SEC)

[4] = target: T7, M1-linked diUb (His-tagged M1-Ub2) (UniProt P0CG48 1-76; P0CG48 1-76); assay: as above
T7 construct: ubiquitin unit 1 of 2 (distal), joined head to tail (M1-linked); ubiquitin unit 2 of 2 (proximal); its I44 is printed as position 120 of the chain; also called linear diUb; source: E. coli BL21(DE3), purified (HisTrap, SEC)

T1 sequence (P12004 whole entry): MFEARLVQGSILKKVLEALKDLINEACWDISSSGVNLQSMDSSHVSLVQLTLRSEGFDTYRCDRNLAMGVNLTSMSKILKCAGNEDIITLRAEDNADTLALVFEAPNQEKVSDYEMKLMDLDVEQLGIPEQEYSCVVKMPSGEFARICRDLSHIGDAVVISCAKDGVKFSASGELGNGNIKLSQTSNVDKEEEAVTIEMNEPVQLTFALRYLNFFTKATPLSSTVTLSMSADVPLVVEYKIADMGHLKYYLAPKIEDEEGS

B1: SPRTN PIP-UBZ (320-489) (domain or fragment, human, UniProt Q9H040 320-489, looked up)
chain: VSNSHQNVLSNYFPRVSFANQKAFRGVNGSPRISVTVGNIPKNSVSSSSQRRVSSSKISLRNSSKVTESASVMPSQDVSGSEDTFPNKRPRLEDKTVFDNFFIKKEQIKSSGNDPKYSTTTAQNSSSSSSQSKMVNCPVCQNEVLESQINEHLDWCLEGDSIKVKSEESL
notes: SPRTN, human, PIP box to UBZ, residues 320-489; plasmid pCold I-SPRTN-PIP-UBZ (320-489); Its purification is not described; amine-coupled to a CM5 chip for SPR
Kd [1]: 12.8 ± 2 µM

B2: SPRTN core region (26-240 aa), E112Q (domain or fragment, human, UniProt Q9H040 26-240, looked up)
chain: QESLSLVDASWELVDPTPDLQALFVQFNDQFFWGQLEAVEVKWSVRMTLCAGICSYEGKGGMCSIRLSEPLLKLRPRKDLVETLLHQMIHAYLFVTNNDKDREGHGPEFCKHMHRINSLTGANITVYHTFHDEVDEYRRHWWRCNGPCQHRPPYYGYVKRATNREPSAHDYWWAEHQKTCGGTYIKIKEPENYSKKGKGKAKLGKEPVLAAENKD
notes: SPRTN, human, residues 26-240 (MPD, ZBD and BR); plasmid pNIC28-SPRTN core (26-240), E112Q; also called SPRTN core (E112Q); SPRTN core E112Q; source: E. coli BL21(DE3), purified (Ni-NTA, TEV cleavage, SEC)
Kd (M1-linked tetraUb): 69.7 ± 6.9 µM
Kd (M1-linked hexaUb): 34.8 ± 3.8 µM
Kd (M1-linked diUb): 132 ± 3.9 µM

B3: SPRTN core region (E112Q), enzymatically inactive (domain or fragment, human, UniProt Q9H040 26-240, looked up)
chain: QESLSLVDASWELVDPTPDLQALFVQFNDQFFWGQLEAVEVKWSVRMTLCAGICSYEGKGGMCSIRLSEPLLKLRPRKDLVETLLHQMIHAYLFVTNNDKDREGHGPEFCKHMHRINSLTGANITVYHTFHDEVDEYRRHWWRCNGPCQHRPPYYGYVKRATNREPSAHDYWWAEHQKTCGGTYIKIKEPENYSKKGKGKAKLGKEPVLAAENKD
notes: SPRTN, human, residues 26-240 (plasmid pNIC28-SPRTN (26-240)), variant E112Q; also called SPRTN core (E112Q); ΔMIU, ΔC: 26–240 aa; source: E. coli BL21(DE3), purified (Ni-NTA, TEV cleavage, HisTrap flow-through, SEC)
Kd [2]: ~35 µM
Kd [3]: ~70 µM
Kd [4]: ~132 µM

From article PMC12277127 (Nucleic Acids Research, 2024)
